Results reported in FireProtDB (doi:10.1110/ps.0237703).

Details: pH 8, Thermal, CD, Bis-Tris propane ammonium acetate 0.05 M 0.05 M, reversible: No, whole UniProt chain shown

B1: wild type, Q8NJZ1 (protein)
chain: MKANIVILSLFAPLAAVAQTLCGQYSSNTQGGYIFNNNMWGMGSGSGSQCTYVDKVWAEGVAWHTDWSWSGGDNNVKSYPYSGRELGTKRIVSSIKSISSGADWDYTGSNLRANAAYDIFTSANPNHATSSGDYEVMIWLGRYGGVYPIGNSIGTVRAAGRDWALHIGYNGAMKVFSFVAANPVTRFDGEIMDFFYLLRDMQGYPMTSQYLLTLQFGTEPFTGSGAKFNCWYFGATLSYW
With B1 the Tm (Bionectria ochroleuca) was 45.9 °C.

B2: wild type, Q8NJY6 (protein)
chain: MKFLQVLPAILPAALAQTSCDQYATFSGNGYIVSNNLWGASAGSGFGCVTSVSLNGAASWHADWQWSGGQNNVKSYQNVQINIPQKRTVNSIGSMPTTASWSYSGSDIRANVAYDLFTAANPNHVTYSGDYELMIWLGKYGDIGPIGSSQGTVNVGGQTWTLYYGYNGAMQVYSFVAQSNTTSYSGDVKNFFNYLRDNKGYNAGGQYVLSYQFGTEPFTGSGTLNVASWTASIN
In the case of B2, the Tm (Trichoderma citrinoviride) is reported as 49.2 °C.

B3: wild type, O00095 (protein)
chain: MKFLQVLPALIPAALAQTSCDQWATFTGNGYTVSNNLWGASAGSGFGCVTAVSLSGGASWHADWQWSGGQNNVKSYQNSQIAIPQKRTVNSISSMPTTASWSYSGSNIRANVAYDLFTAANPNHVTYSGDYELMIWLGKYGDIGPIGSSQGTVNVGGQSWTLYYGYNGAMQVYSFVAQTNTTNYSGDVKNFFNYLRDNKGYNAAGQYVLSYQFGTEPFTGSGTLNVASWTASIN
B3 gave a Tm (Hypocrea jecorina) of 54.4 °C.
